Measured values reported in patent EP2769989A1.

Molecular target: AC133-positive and CD3-positive cells (target of the printed Kd not stated)
Test: flow cytometry on cells, MFI against antibody concentration, detected with anti-c-Myc mAb and PE anti-mouse F(ab')2; target cell line for this Kd not stated

Kd: 6.4 nM
B1: AC133xCD3-diabody (bispecific single-chain antibody, VHAC133-G4S Linker-VLCD3-(G4S)3 Linker-VHCD3-G4S Linker-VLAC133) (bispecific antibody)
chain: QVQLQQSGAELVRPGASVKLSCKASGYTFSDFEMHWVKQTPVHGLEWIGDIDPGTGDTAYNLKFKGKATLTTDKSSSTAYMELRSLTSEDSAVYYCTLGAFVYWGQGTLVTVSGGGGSDIQMTQSPSSLSASVGDRVTITCRASQDIRNYLNWYQQKPGKAPKLLIYYTSRLESGVPSRFSGSGSGTDYTLTISSLQPEDFATYYCQQGNTLPWTFGQGTKVEIKGGGGSGGGGSGGGGSEVQLVESGGGLVQPGGSLRLSCAASGYSFTGYTMNWVRQAPGKGLEWVALINPYKGVSTYNQKFKDRFTISVDKSKNTAYLQMNSLRAEDTAVYYCARSGYYGDSDWYFDVWGQGTLVTVSSGGGGSDVVVTQTPLSLPVSFGDQVSISCRSSQSLANSYGNTYLSWYLHKPGQSPQLLIYGISNRFSGVPDRFSGSGSGTDFTLKISTIKPEDLGMYYCLQGTHQPYTFGGGTKLEIKRADAAA
